PMC9667838

Molecular target: Secreted form of the peptidase domain (PD) of ACE2 (human)
Assay: BLI

Substance | Kd
Receptor binding domain (RBD) of the spike glycoprotein of SARS-CoV-2 Omicron subvariant BA.2 (from UniProt P0DTC2 319-541) (domain or fragment) | 4.15 nM
Receptor binding domain (RBD) of the spike glycoprotein of SARS-CoV-2 Omicron subvariants BA.4/BA.5 (from UniProt P0DTC2 319-541) (domain or fragment) | 4.55 nM
